Bridges are numbered along the chain shown (N, C = ends). [ ]: non-standard residue; d: D form. Oic = O=C(O)[C@@H]1C[C@@H]2CCCC[C@@H]2N1; Trx = NC[C@H]1CC[C@H](C(=O)O)CC1; tBuAla = CC(C)(C)C[C@H](N)C(=O)O; Pen = CC(C)(S)[C@H](N)C(=O)O; NMeC = CN[C@@H](CS)C(=O)O; Abu = CC[C@H](N)C(=O)O; Ahx = NCCCCCC(=O)O; GABA = NCCCC(=O)O; Sar = CNCC(=O)O

Assay in all cases: cell-based or functional assay
Test [1] has as its target T1, recombinant human MASP1 (amino acids 297-699, C-terminal His Tag) (human) (UniProt P48740).
T1 sequence: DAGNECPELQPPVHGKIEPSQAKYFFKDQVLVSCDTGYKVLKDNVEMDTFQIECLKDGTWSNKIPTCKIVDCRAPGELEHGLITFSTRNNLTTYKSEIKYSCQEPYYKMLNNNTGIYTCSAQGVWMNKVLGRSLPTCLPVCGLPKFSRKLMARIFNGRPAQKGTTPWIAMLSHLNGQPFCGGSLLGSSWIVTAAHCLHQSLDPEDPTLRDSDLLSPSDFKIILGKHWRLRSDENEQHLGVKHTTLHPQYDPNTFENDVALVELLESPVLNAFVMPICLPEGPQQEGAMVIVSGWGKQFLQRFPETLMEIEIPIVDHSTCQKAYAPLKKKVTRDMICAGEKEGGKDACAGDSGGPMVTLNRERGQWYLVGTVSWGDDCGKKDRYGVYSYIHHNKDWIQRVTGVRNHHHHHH

Test [2] concerns the target recombinant human MASP2 (amino acids 297-686, C-terminal His Tag) (human) (UniProt O00187).
In test [3] the target is T2, recombinant human MASP1 (amino acids 297-699, C-terminal His Tag) (human), P48740.
T2 chain: T1 sequence

Test [4] concerns the target recombinant human MASP2 (amino acids 297-686, C-terminal His Tag) (human), O00187.
The target of test [5] is T3, recombinant rat MASP1 (amino acids 302-704, C-terminal His Tag) (rat), Q8CHN8.
T3 chain: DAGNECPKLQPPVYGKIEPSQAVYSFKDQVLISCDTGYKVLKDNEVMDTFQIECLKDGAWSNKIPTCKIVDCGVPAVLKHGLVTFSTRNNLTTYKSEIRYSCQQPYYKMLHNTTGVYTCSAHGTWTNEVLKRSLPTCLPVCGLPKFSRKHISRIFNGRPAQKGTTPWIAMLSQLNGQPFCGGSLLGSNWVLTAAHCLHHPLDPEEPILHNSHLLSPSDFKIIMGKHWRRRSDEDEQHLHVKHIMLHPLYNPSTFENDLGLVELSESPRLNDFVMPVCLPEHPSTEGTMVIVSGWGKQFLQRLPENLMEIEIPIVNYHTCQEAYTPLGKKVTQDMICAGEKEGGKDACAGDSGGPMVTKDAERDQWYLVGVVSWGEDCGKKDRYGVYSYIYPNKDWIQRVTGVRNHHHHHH

Test [6] concerns the target recombinant rat MASP2 (amino acids 296-685, C-terminal His Tag) (rat), Q9JJS8.

Chain of recombinant human MASP2 (amino acids 297-686, C-terminal His Tag) (human) (O00187 other isoform, or with tags, fused parts or gaps limits assumed): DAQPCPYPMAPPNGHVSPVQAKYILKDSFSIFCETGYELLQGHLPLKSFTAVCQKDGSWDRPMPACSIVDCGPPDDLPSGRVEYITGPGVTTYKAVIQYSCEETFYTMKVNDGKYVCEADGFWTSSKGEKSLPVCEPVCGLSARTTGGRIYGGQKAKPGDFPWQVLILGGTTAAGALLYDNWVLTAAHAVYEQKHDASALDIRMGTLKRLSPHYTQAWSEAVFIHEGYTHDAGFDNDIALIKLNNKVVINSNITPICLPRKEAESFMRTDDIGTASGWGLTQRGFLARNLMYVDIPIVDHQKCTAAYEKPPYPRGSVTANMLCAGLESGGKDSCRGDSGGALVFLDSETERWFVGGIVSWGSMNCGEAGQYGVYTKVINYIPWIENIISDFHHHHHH
Chain of recombinant human MASP2 (amino acids 297-686, C-terminal His Tag) (human), O00187 (O00187 other isoform, or with tags, fused parts or gaps limits assumed): as above
Chain of recombinant rat MASP2 (amino acids 296-685, C-terminal His Tag) (rat), Q9JJS8 (Q9JJS8 other isoform, or with tags, fused parts or gaps limits assumed): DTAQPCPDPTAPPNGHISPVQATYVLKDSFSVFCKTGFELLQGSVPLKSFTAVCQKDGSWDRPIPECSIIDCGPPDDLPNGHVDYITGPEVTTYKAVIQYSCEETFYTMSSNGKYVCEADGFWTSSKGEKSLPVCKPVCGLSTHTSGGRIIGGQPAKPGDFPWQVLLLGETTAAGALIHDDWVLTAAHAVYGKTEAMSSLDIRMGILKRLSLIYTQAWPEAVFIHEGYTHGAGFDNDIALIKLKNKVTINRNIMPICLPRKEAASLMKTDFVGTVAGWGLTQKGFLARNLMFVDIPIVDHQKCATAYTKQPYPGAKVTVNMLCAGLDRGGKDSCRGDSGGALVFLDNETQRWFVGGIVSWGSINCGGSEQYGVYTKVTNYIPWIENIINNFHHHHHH

For G[Trx]GICSRS[tBuAla]PPI[NMeC]IPD-NH2 (disulfide 5-13; lactam N-16; also: TFA salt) [Example 69: G**-(TXA)-GIC+SRS-((tBu)A)-PPI-((N-Me)C)+-IPD++-NH2], the human MASP1 IC50 in test [1] is 20 nM. For the same molecule, in test [2], the human MASP2 IC50 was 190 nM.

[Ahx][Sar]GICSRSLP[Oic]I[Pen]IPE-NH2 (disulfide 5-13; lactam N-16; also: TFA salt) [Example 76: (Ahx)**-((N-Me)G)-GIC+SRSLP-(Oic)-I-(Pen)+-IPE++-NH2]: the human MASP1 IC50 in test [1] turned out to be 9.7 nM. In addition, the human MASP2 IC50 in test [2] amounted to 180 nM.

Turning to cyclo(AGAICSRS[tBuAla]PPI[NMeC]IPD) (disulfide 5-13; also: TFA salt) [Example 31: A**GAIC+SRS-((tBu)A)-PPI-((N-Me)C)+-IPD**], the human MASP1 IC50 in test [1] amounted to 16 nM. In test [2], the human MASP2 IC50 amounted to 130 nM.

For the molecule cyclo([Ahx]GICSRS[tBuAla]PPI[NMeC]IPD) (disulfide 4-12; also: TFA salt) [Example 30: (Ahx)**-GIC+SRS-((tBu)A)-PPI-((N-Me)C)+-IPD**], the human MASP1 IC50 in test [1] turned out to be 16 nM. Moreover, the human MASP2 IC50 in test [2] stood at 65 nM.

Consider [Ahx]GICSRS[tBuAla]PPI[NMeC]IPD-NH2 (disulfide 4-12; lactam N-15; also: TFA salt) [Example 40: (Ahx)**-GIC+SRS-((tBu)A)-PPI-((N-Me)C)+-IPD++-NH2], for which, in test [1], the human MASP1 IC50 turned out to be 7.1 nM. For the same molecule, in test [2], the human MASP2 IC50 worked out at 90 nM.

As for cyclo([Ahx][Abu]ICSRS[tBuAla]PPI[NMeC]IPD) (disulfide 4-12; also: TFA salt) [Example 33: (Ahx)**-(Abu)-IC+SRS-((tBu)A)-PPI-((N-Me)C)+-IPD**], in test [1], the human MASP1 IC50 worked out at 28 nM. Also, in test [2], the human MASP2 IC50 worked out at 62 nM.

Consider cyclo([GABA]ICSRS[tBuAla]PPI[NMeC]IPD) (disulfide 3-11; also: TFA salt) [Example 36: (Gamma-Abu)**-IC+SRS-((tBu)A)-PPI-((N-Me)C)+-IPD**], for which the human MASP1 IC50 in test [1] worked out at 8.7 nM. Moreover, in test [2], the human MASP2 IC50 is 110 nM.

With GRCTKSIPPICFPD (modifications not checked) [Bicyclic SFTI-1: G**RC+TKSIPPIC+FPD**], the human MASP1 IC50 in test [3] was greater than 3000 nM. In addition, the human MASP2 IC50 in test [4] was greater than 3000 nM. In addition, the rat MASP1 IC50 in test [5] worked out at 1000 nM. The rat MASP2 IC50 in test [6] came to 1000 nM.

The values above are taken from patent US20240010684A1, “MASP INHIBITORY COMPOUNDS AND USES THEREOF” (BAYER AKTIENGESELLSCHAFT, priority 2020, published 2024).
